Data reported in publication PMC9167512, “Intradiol ring cleavage dioxygenases from herbivorous spider mites as a new detoxification enzyme family in animals” (BMC Biology, 2022).

Columns and labels:
Assay in all cases: purified protein
Details in all cases: 0.1 M PBS pH 7.5, 25 °C, O2 co-substrate (air), Fe enzyme, kcat corrected for iron content
Oc1ccc(Cl)cc1O = system: Oc1ccc(Cl)cc1O
purified protein [1] = substrate: Oc1ccccc1O
purified protein [2] = substrate: Cc1ccc(O)c(O)c1; type: biochemical, Tetranychus urticae

Molecule	Km (Oc1ccc(Cl)cc1O) [µM]	Vmax (Oc1ccc(Cl)cc1O) [µM/min]	kcat (Oc1ccc(Cl)cc1O) [s⁻¹]	kcat/Km (Oc1ccc(Cl)cc1O) [M⁻¹ s⁻¹]	Km (purified protein [1]) [µM]	Vmax (purified protein [1]) [µM/min]	kcat (purified protein [1]) [s⁻¹]	kcat/Km (purified protein [1]) [M⁻¹ s⁻¹]	Km (purified protein [2]) [µM]	Vmax (purified protein [2]) [µM/min]	kcat (purified protein [2]) [s⁻¹]	kcat/Km (purified protein [2]) [M⁻¹ s⁻¹]
TuDOG1 (Tetranychus urticae)	21.2 ± 7.4	0.08	0.0216 ± 0.0027	1020 ± 367								
TuDOG16 (Tetranychus urticae)	154.3 ± 20.9	0.31	0.0416 ± 0.00135	267 ± 66.7								
TuDOG7 (Tetranychus urticae)	115.2 ± 35.7	0.96	0.051 ± 0.0122	450 ± 350								
TuDOG15 (Tetranychus urticae)	72.0 ± 21.3	0.62	0.0915 ± 0.0133	1270 ± 617								
TuDOG11 (Tetranychus urticae)	25.2 ± 4.6	0.09	0.00858 ± 0.00095	333 ± 200								
TuDOG11 (Tetranychus urticae) (protein, signal peptide removed, N-terminal 6xHis kept, pJExpress 411, E. coli BL21(DE3), codon optimized (ATUM), 25-37 kDa) HLQRPGKFLPHDRSIVDCARYKREANQHTCVLAPFTTEGPYFLPDDLERSDITDGQTGVNLDLNLKLTNAKDCSPLSNYFVHVWQANALGHYSGVNELFPVGFRPKPISGERFLRGYQKTNEDGEVNFKTIIPGWYVGRCIHIHVEVYAKNNTDGNAVNYIGQLYFERDIPSSLRLVEPYSTNVNEITLNDSDGVYLLTHGNDTLIDLVPQESGFRTDYIVAIDPDVSIKYDWLDI					64.9 ± 24.3	0.56	0.0534 ± 0.00382	817 ± 150	153.9 ± 24.6	0.58	0.0553 ± 0.00382	367 ± 150
TuDOG15 (Tetranychus urticae) (protein) DHERPGKYLEHDSTVINCARYKREANQHSCVLAPYAVEGPYFLPDDLERSNLAEDKVGVSLDLAIRLVNSNDCTPLTNMFVHVWHADALGVYSGVPDLAELFVERMRQENKTLPPFWGPEGAYEGRRPGGPGGPGGPGGPGGPGDMEMPGRPTPVNNERFLRGYQVTNEAGEVNFKTIIPGWYTGRSLHIHVEVYSKNTTEPGEVNYIGQIFFKDDLPAELKLIEPYSLNQNILVLNPQDGIYNFAHGEQTKIQLENRETGYFGSMTFGINPNAH					91.0 ± 21.2	0.09	0.0133 ± 0.00148	150 ± 66.7	117.4 ± 46.5	1.77	0.261 ± 0.0546	2230 ± 1170
TuDOG7 (Tetranychus urticae) (protein) ERSIEILNHDATVIDCARYKREANQHKCVITPFTTEGPYFLPDDYERSDITDGYTGVNLNLTLLLTNAKDCSPLSNYYVHIWNANAMGHYSGVKEFNFFDHPTFRPKPINNLRFLRGYQITNEDGLVNFNTIIPGWYFGRCIHIHVEIYDKNTTDGHAVSYIGQLYFNREMPAALKLIDPYSQNNNELTLNDQDIVFALSRGSDTILELIPEGNGYSASYVLSIDPTVKVENSVLPFEDPRNVSFIEH					74.9 ± 30.9	0.42	0.0223 ± 0.00318	300 ± 100	62.2 ± 42.3	0.53	0.0282 ± 0.0122	450 ± 283
TuDOG16 (Tetranychus urticae) (protein, signal peptide removed, N-terminal 6xHis kept, pJExpress 411, E. coli BL21(DE3), codon optimized (ATUM), 25-37 kDa) HSERPGKFLEHDRSIVNCARYKREANQHTCVLAPFATEGPYFLADDLERSDITDGQTGVNLDLNLKLTNAKDCSPLSGYFVHIWNANALGHYSGVQEFNKFPKQTFRPKPIYDTRWLRGYQVTNEDGEVNFKTIVPGWYYGRCLHIHVEVYSKNTTDTNAITYIGQLYFKRELPVQLKLVEPYSSNQNELKFNEQDKVFNGMHGNDTITELVFEENNAKTSFILALDPTVTTLTNGTVVN					51.0 ± 23.4	0.06	0.00805 ± 0.00135	150 ± 50	52.4 ± 19.6	0.14	0.0188 ± 0.00268	367 ± 133
TuDOG1 (Tetranychus urticae) (protein, signal peptide removed, N-terminal 6xHis kept, pJExpress 411, E. coli BL21(DE3), codon optimized (ATUM), 25-37 kDa) DVHRRGKFLPHDRTVINCASLNRKAHQHSSVLAPFTTEGPFFLPDDLKRSDITDGQKGIPLELTIKLTNAKDCTPISNFFIHAWQTNATGVYSGIDEDTAPLSGFRPTPVNRDRSLRGYQETDANGEVKFLTILPGWYSGRAIHIHIEVYAKDITDENKITYIGQFYFEHDFPLKLRKIYPYSTNTQRIIFNEQDYYYVHDHGDETTLDLKHNGAKFSSYATVAIDPTVTVHVQ					15.2 ± 4.5	0.14	0.0378 ± 0.0027	2480 ± 600	15.1 ± 2.7	0.12	0.0324 ± 0.0027	2150 ± 1000
